Experimental data taken from patent US20230346885A1 (published 2023).
Each block holds one binder with its values, some of them ahead of it.

Tests used:
Test in all cases: binding, other
ACTL8 peptide on HLA [1] = target: T1, ACTL8 peptide on HLA (human)
T1 peptide: ALDESNTYQL

ACTL8 peptide on HLA [2] = target: T2, ACTL8 peptide on HLA (human)
T2 peptide: SLYASGLLTGV

ACTL8 peptide on HLA [3] = target: T3, ACTL8 peptide on HLA (human)
T3 peptide: RCLFQLETV

ASCL2 peptide on HLA [4] = target: T4, ASCL2 peptide on HLA (human)
T4 peptide: LLAEHDAVRNA

ASCL2 peptide on HLA [5] = target: T5, ASCL2 peptide on HLA (human)
T5 peptide: LLAEHDAVRNAL

binding result (ACTL8 peptide on HLA [3]): recognises
B8: TCR of SEQ ID NOs 287 and 288 (TCR, V domains shown)
Valpha: KQEVTQIPAALSVPEGENLVLNCSFTDSAIYNLQWFRQDPGKGLTSLLLIQSSQREQTSGRLNASLDKSSGRSTLYIAASQPGDSATYLCAVNYYNQGGKLIFGQGTELSVKP
Vbeta: NAGVTQTPKFQVLKTGQSMTLQCAQDMNHNSMYWYRQDPGMGLRLIYYSASEGTTDKGEVPNGYNVSRLNKREFSLRLESAAPSQTSVYFCASTPTYWDSYEQYFGPGTRLTVT

binding result (ASCL2 peptide on HLA [4]): recognises
B9: TCR of SEQ ID NOs 309 and 310 (TCR, V domains shown)
Valpha: KQEVTQIPAALSVPEGENLVLNCSFTDSAIYNLQWFRQDPGKGLTSLLLIQSSQREQTSGRLNASLDKSSGRSTLYIAASQPGDSATYLCAVRPAGQNFVFGPGTRLSVLP
Vbeta: NAGVTQTPKFQVLKTGQSMTLQCAQDMNHNSMYWYRQDPGMGLRLIYYSASEGTTDKGEVPNGYNVSRLNKREFSLRLESAAPSQTSVYFCASSEALWGGNTEAFFGQGTRLPVV

binding result (ASCL2 peptide on HLA [5]): recognises
B10: TCR of SEQ ID NOs 293 and 294 (TCR, V domains shown)
Valpha: KQEVTQIPAALSVPEGENLVLNCSFTDSAIYNLQWFRQDPGKGLTSLLLIQSSQREQTSGRLNASLDKSSGRSTLYIAASQPGDSATYLCAVRQHTGRRALTFGSGTRLQVQP
Vbeta: NAGVTQTPKFRILKIGQSMTLQCTQDMNHNYMYWYRQDPGMGLKLIYYSVGAGITDKGEVPNGYNVSRSTTEDFPLRLELAAPSQTSVYFCASSYSPENTEAFFGQGTRLTVV

binding result (ASCL2 peptide on HLA [5]): recognises
B11: TCR of SEQ ID NOs 295 and 296 (TCR, V domains shown)
Valpha: KQEVTQIPAALSVPEGENLVLNCSFTDSAIYNLQWFRQDPGKGLTSLLLIQSSQREQTSGRLNASLDKSSGRSTLYIAASQPGDSATYLCAVRQHTGRRALTFGSGTRLQVQP
Vbeta: NAGVTQTPKFRILKIGQSMTLQCTQDMNHNYMYWYRQDPGMGLRLIHYSVGAGITDQGEVPNGYNVSRSTTEDFPLRLLSAAPSQTSVYFCASSYSPEADIQYFGAGTRLSVL

binding result (ASCL2 peptide on HLA [5]): recognises
B12: TCR of SEQ ID NOs 297 and 298 (TCR, V domains shown)
Valpha: KQEVTQIPAALSVPEGENLVLNCSFTDSAIYNLQWFRQDPGKGLTSLLLIQSSQREQTSGRLNASLDKSSGRSTLYIAASQPGDSATYLCAVLTNDYKLSFGAGTTVTVRA
Vbeta: NAGVTQTPKFRVLKTGQSMTLLCAQDMNHEYMYWYRQDPGMGLRLIHYSVGEGTTAKGEVPDGYNVSRLKKQNFLLGLESAAPSQTSVYFCASSYSGFDSPLHFGNGTRLTVT

binding result (ASCL2 peptide on HLA [4]): recognises
B13: TCR of SEQ ID NOs 305 and 306 (TCR, V domains shown)
Valpha: KQEVTQIPAALSVPEGENLVLNCSFTDSAIYNLQWFRQDPGKGLTSLLLIQSSQREQTSGRLNASLDKSSGRSTLYIAASQPGDSATYLCAVRSSTDSWGKFQFGAGTQVVVTP
Vbeta: NAGVTQTPKFQVLKTGQSMTLQCAQDMNHEYMSWYRQDPGMGLRLIHYSVGAGITDQGEVPNGYNVSRSTTEDFPLRLLSAAPSQTSVYFCASSYSAGLTGELFFGEGSRLTVL

binding result (ACTL8 peptide on HLA [1]): recognises
B14: TCR of SEQ ID NOs 279 and 280 (TCR, V domains shown)
Valpha: KQEVTQIPAALSVPEGENLVLNCSFTDSAIYNLQWFRQDPGKGLTSLLLIQSSQREQTSGRLNASLDKSSGRSTLYIAASQPGDSATYLCATGFQKLVFGTGTRLLVSP
Vbeta: NAGVTQTPKFQVLKTGQSMTLQCAQDMNHNSMYWYRQDPGMGLRLIYYSASEGTTDKGEVPNGYNVSRLNKREFSLRLESAAPSQTSVYFCASTLGRLLTEAFFGQGTRLTVV

binding result (ACTL8 peptide on HLA [3]): recognises
B15: TCR of SEQ ID NOs 291 and 292 (TCR, V domains shown)
Valpha: KQEVTQIPAALSVPEGENLVLNCSFTDSAIYNLQWFRQDPGKGLTSLLLIQSSQREQTSGRLNASLDKSSGRSTLYIAASQPGDSATYLCAVDADKLIFGTGTRLQVFP
Vbeta: NAGVTQTPKFRILKIGQSMTLQCTQDMNHEYMYWYRQDPGMGLRLIHYSVGEGTTAKGEVPDGYNVSRLKKQNFLLGLESAAPSQTSVYFCASREVGRDEHFFGPGTRLTVL

Continued, binder first:

B1: TCR of SEQ ID NOs 275 and 276 (TCR, V domains shown)
Valpha: KQEVTQIPAALSVPEGENLVLNCSFTDSAIYNLQWFRQDPGKGLTSLLLIQSSQREQTSGRLNASLDKSSGRSTLYIAASQPGDSATYLCAVRGYNKLIFGAGTRLAVHP
Vbeta: NAGVTQTPKFRILKIGQSMTLQCTQDMNHNYMYWYRQDPGMGLKLIYYSVGAGITDKGEVPNGYNVSRSTTEDFPLRLLSAAPSQTSVYFCASSYSPIVGAFFGQGTRLTVV
binding result (ACTL8 peptide on HLA [1]): recognises

B2: TCR of SEQ ID NOs 281 and 282 (TCR, V domains shown)
Valpha: KQEVTQIPAALSVPEGENLVLNCSFTDSAIYNLQWFRQDPGKGLTSLLLIQSSQREQTSGRLNASLDKSSGRSTLYIAASQPGDSATYLCAVRGYNKLIFGAGTRLAVHP
Vbeta: NAGVTQTPKFRVLKTGQSMTLLCAQDMNHEYMYWYRQDPGMGLRLIHYSVGEGTTAKGEVPDGYNVSRLKKQNFLLGLESAAPSQTSVYFCASSFDVTEAFFGQGTRLTVV
binding result (ACTL8 peptide on HLA [2]): recognises

B3: TCR of SEQ ID NOs 277 and 278 (TCR, V domains shown)
Valpha: KQEVTQIPAALSVPEGENLVLNCSFTDSAIYNLQWFRQDPGKGLTSLLLIQSSQREQTSGRLNASLDKSSGRSTLYIAASQPGDSATYLCAVRGYNKLIFGAGTRLAVHP
Vbeta: NAGVTQTPKFRILKIGQSMTLQCAQDMNHNYMYWYRQDPGMGLKLIYYSVGAGITDKGEVPNGYNVSRSTTEDFPLRLELAAPSQTSVYFCASTRDTYYGYTFGSGTRLTVV
binding result (ACTL8 peptide on HLA [1]): recognises

B4: TCR of SEQ ID NOs 283 and 284 (TCR, V domains shown)
Valpha: KQEVTQIPAALSVPEGENLVLNCSFTDSAIYNLQWFRQDPGKGLTSLLLIQSSQREQTSGRLNASLDKSSGRSTLYIAASQPGDSATYLCAVKKDAGNKLTFGGGTRVLVKP
Vbeta: NAGVTQTPKFRVLKTGQSMTLLCAQDMNHEYMYWYRQDPGMGLRLIYYSASEGTTDKGEVPNGYNVSRLNKREFSLRLESAAPSQTSVYFCASSDSRRGGLLLYNSPLHFGNGTRLTVT
binding result (ACTL8 peptide on HLA [2]): recognises

B5: TCR of SEQ ID NOs 285 and 286 (TCR, V domains shown)
Valpha: KQEVTQIPAALSVPEGENLVLNCSFTDSAIYNLQWFRQDPGKGLTSLLLIQSSQREQTSGRLNASLDKSSGRSTLYIAASQPGDSATYLCAVRAAGNKLTFGGGTRVLVKP
Vbeta: NAGVTQTPKFRVLKTGQSMTLLCAQDMNHEYMYWYRQDPGMGLRLIYYSASEGTTDKGEVPNGYNVSRLNKREFSLRLESAAPSQTSVYFCASSDSRRGGLLLYNSPLHFGNGTRLTVT
binding result (ACTL8 peptide on HLA [2]): recognises

B6: TCR of SEQ ID NOs 289 and 290 (TCR, V domains shown)
Valpha: KQEVTQIPAALSVPEGENLVLNCSFTDSAIYNLQWFRQDPGKGLTSLLLIQSSQREQTSGRLNASLDKSSGRSTLYIAASQPGDSATYLCAVDSSGSRLTFGEGTQLTVNP
Vbeta: NAGVTQTPKFQVLKTGQSMTLQCAQDMNHEYMYWYRQDPGMGLRLIHYSVGAGITDQGEVPNGYNVSRSTTEDFPLRLLSAAPSQTSVYFCASRLLGGSGYTFGSGTRLTVV
binding result (ACTL8 peptide on HLA [3]): recognises

B7: TCR of SEQ ID NOs 307 and 308 (TCR, V domains shown)
Valpha: KQEVTQIPAALSVPEGENLVLNCSFTDSAIYNLQWFRQDPGKGLTSLLLIQSSQREQTSGRLNASLDKSSGRSTLYIAASQPGDSATYLCAVTDSWGKLQFGAGTQVVVTP
Vbeta: NAGVTQTPKFQVLKTGQSMTLQCAQDMNHNSMYWYRQDPGMGLRLIYYSVGAGITDQGEVPNGYNVSRSTTEDFPLRLLSAAPSQTSVYFCASSRGPINYGYTFGSGTRLTVV
binding result (ASCL2 peptide on HLA [4]): recognises
